The Human Domainome abundance scans (Beltran et al. 2025)
± gives the uncertainty stated by the source.

B1: Membrane-associated guanylate kinase, WW and PDZ domain-containing protein 3, residues 287 to 329; numbered along this chain, Q5TCQ9 (parent)
chain: MRDETLEPLPKNWEMAYTDTGMIYFIDHNTKTTTWLDPRLCKK

Variants of: B1
Assay: abundance fitness (aPCA) (normalised: wild type 0, dead -1); higher = more abundant; growth selection in yeast, the domain comes from the species named
Conditions: Homo sapiens

Compared with L36V, L36G is lower in abundance fitness: -0.019 ± 0.039 for the first, -0.144 ± 0.032 for the second.

L36D and L36N are within error of each other in abundance fitness: -0.183 ± 0.052 for the first, -0.121 ± 0.076 for the second.

L36H and L36Q are within error of each other in abundance fitness: -0.037 ± 0.07 for the first, -0.03 ± 0.036 for the second.

L36I and L36E are within error of each other in abundance fitness: -0.07 ± 0.042 for the first, -0.097 ± 0.038 for the second.

L36W and L36Y are within error of each other in abundance fitness: -0.061 ± 0.033 for the first, -0.077 ± 0.081 for the second.

L36A and L36C are within error of each other in abundance fitness: -0.044 ± 0.03 for the first, -0.099 ± 0.039 for the second.

L36M and L36T are within error of each other in abundance fitness: -0.001 ± 0.041 for the first, -0.078 ± 0.037 for the second.

Compared with L36F, L36R is higher in abundance fitness: -0.088 ± 0.037 for the first, -0.013 ± 0.028 for the second.

Compared with D37E, D37S is higher in abundance fitness: -0.556 ± 0.042 for the first, -0.188 ± 0.032 for the second.

D37W and D37Y are within error of each other in abundance fitness: -0.616 ± 0.061 for the first, -0.731 ± 0.11 for the second.

Going from D37I to D37H, the abundance fitness rises from -1.04 ± 0.2 to -0.166 ± 0.052.

Compared with D37G, D37C is higher in abundance fitness: -0.557 ± 0.032 for the first, -0.459 ± 0.044 for the second.

First: D37P
Second: D37Q
The abundance fitness of the first is higher: -0.168 ± 0.037 for the first, -0.486 ± 0.048 for the second.

First: D37V
Second: D37R
The abundance fitness of the first is lower: -0.926 ± 0.043 for the first, -0.263 ± 0.029 for the second.

Going from D37N to D37K, the abundance fitness falls from -0.235 ± 0.049 to -0.407 ± 0.075.

Going from D37A to D37M, the abundance fitness falls from -0.436 ± 0.03 to -1.02 ± 0.1.

L40K and L40V are within error of each other in abundance fitness: 0.016 ± 0.04 for the first, 0 ± 0.034 for the second.

L40G and L40T are within error of each other in abundance fitness: -0.028 ± 0.027 for the first, -0.085 ± 0.064 for the second.

L40E and L40R are within error of each other in abundance fitness: 0.022 ± 0.037 for the first, -0.02 ± 0.03 for the second.

L40Q and L40C are within error of each other in abundance fitness: -0.014 ± 0.037 for the first, -0.033 ± 0.035 for the second.

L40M and L40P are within error of each other in abundance fitness: -0.069 ± 0.038 for the first, -0.118 ± 0.047 for the second.

Going from L40A to L40Y, the abundance fitness falls from -0.019 ± 0.038 to -0.193 ± 0.065.

L40N and L40I are within error of each other in abundance fitness: 0.041 ± 0.071 for the first, -0.102 ± 0.081 for the second.

L40D and L40S are within error of each other in abundance fitness: -0.039 ± 0.045 for the first, -0.053 ± 0.033 for the second.

K42A and K42G are within error of each other in abundance fitness: 0.018 ± 0.027 for the first, -0.014 ± 0.029 for the second.

Going from K42E to K42L, the abundance fitness falls from 0.056 ± 0.044 to -0.086 ± 0.032.

K42V and K42R are within error of each other in abundance fitness: -0.099 ± 0.033 for the first, -0.038 ± 0.033 for the second.

Going from K42T to K42W, the abundance fitness falls from -0.029 ± 0.039 to -0.115 ± 0.042.

First: K42F
Second: K42I
The abundance fitness of the first is lower: -0.242 ± 0.048 for the first, -0.097 ± 0.07 for the second.

K42Q and K42H are within error of each other in abundance fitness: -0.056 ± 0.04 for the first, -0.081 ± 0.045 for the second.

First: K42D
Second: K42M
The abundance fitness of the first is higher: 0.002 ± 0.04 for the first, -0.1 ± 0.047 for the second.

K42Y and K42C are within error of each other in abundance fitness: -0.223 ± 0.06 for the first, -0.146 ± 0.062 for the second.

K42S and K42N are within error of each other in abundance fitness: -0.063 ± 0.035 for the first, -0.168 ± 0.15 for the second.

Compared with K42P, C41S is higher in abundance fitness: -0.094 ± 0.046 for the first, 0.034 ± 0.041 for the second.

C41H gave an abundance fitness of 0.051 ± 0.081.
